Measured values as given in patent EP0808367B1 (MILLENNIUM PHARMACEUTICALS, INC., dated 2007).
Blank lines part the entries; values can stand above or below the molecule they belong to.

Legend:
human α4β7 integrin [1] = molecular target: T1, human α4β7 integrin (human, UniProt P13612 34-1032; P26010 20-798); assay: RPMI 8866 adhesion to chimera on protein A plate; supernatant 1:4; preincubated with control anti-VCAM-1 MAb 2G7 (-); settings: scale: raw fluorescence
T1 construct: whole, on cells; also called α4β7 on RPMI 8866 cells; α4β7 on HuT 78 cells

human α4β7 integrin [2] = molecular target: T1, human α4β7 integrin; assay: RPMI 8866 adhesion to chimera on protein A plate; supernatant 1:8; preincubated with control anti-VCAM-1 MAb 2G7 (-); settings: scale: raw fluorescence
human α4β7 integrin [3] = molecular target: T1, human α4β7 integrin; assay: RPMI 8866 adhesion to chimera on protein A plate; supernatant 1:16; preincubated with blocking anti-human MAdCAM MAb 10G3 (+); settings: scale: raw fluorescence
human α4β7 integrin [4] = molecular target: T1, human α4β7 integrin; assay: RPMI 8866 adhesion to chimera on protein A plate; supernatant neat; preincubated with blocking anti-human MAdCAM MAb 10G3 (+); settings: scale: raw fluorescence
human α4β7 integrin [5] = molecular target: T1, human α4β7 integrin; assay: RPMI 8866 adhesion to chimera on protein A plate; supernatant 1:32; preincubated with control anti-VCAM-1 MAb 2G7 (-); settings: scale: raw fluorescence
human α4β7 integrin [6] = molecular target: T1, human α4β7 integrin; assay: RPMI 8866 adhesion to chimera on protein A plate; supernatant neat; preincubated with control anti-VCAM-1 MAb 2G7 (-); settings: scale: raw fluorescence
human α4β7 integrin [7] = molecular target: T1, human α4β7 integrin; assay: RPMI 8866 adhesion to chimera on protein A plate; supernatant 1:8; preincubated with blocking anti-human MAdCAM MAb 10G3 (+); settings: scale: raw fluorescence
human α4β7 integrin [8] = molecular target: T1, human α4β7 integrin; assay: RPMI 8866 adhesion to chimera on protein A plate; supernatant 1:16; preincubated with control anti-VCAM-1 MAb 2G7 (-); settings: scale: raw fluorescence
human α4β7 integrin [9] = molecular target: T1, human α4β7 integrin; assay: RPMI 8866 adhesion to chimera on protein A plate; supernatant 1:2; preincubated with blocking anti-human MAdCAM MAb 10G3 (+); settings: scale: raw fluorescence
human α4β7 integrin [10] = molecular target: T1, human α4β7 integrin; assay: RPMI 8866 adhesion to chimera on protein A plate; supernatant 1:32; preincubated with blocking anti-human MAdCAM MAb 10G3 (+); settings: scale: raw fluorescence
human α4β7 integrin [11] = molecular target: T1, human α4β7 integrin; assay: RPMI 8866 adhesion to chimera on protein A plate; supernatant 1:2; preincubated with control anti-VCAM-1 MAb 2G7 (-); settings: scale: raw fluorescence
human α4β7 integrin [12] = molecular target: T1, human α4β7 integrin; assay: RPMI 8866 adhesion to chimera on protein A plate; supernatant 1:4; preincubated with blocking anti-human MAdCAM MAb 10G3 (+); settings: scale: raw fluorescence
human α4β7 integrin [13] = molecular target: T1, human α4β7 integrin; assay: RPMI 8866 adhesion to chimera on protein A plate; chimera 1:8; preincubated with blocking anti-human MAdCAM MAb 10G3 (+); settings: scale: raw fluorescence
human α4β7 integrin [14] = molecular target: T1, human α4β7 integrin; assay: RPMI 8866 adhesion to chimera on protein A plate; chimera 1:16; preincubated with control anti-VCAM-1 MAb 2G7 (-); settings: scale: raw fluorescence
human α4β7 integrin [15] = molecular target: T1, human α4β7 integrin; assay: RPMI 8866 adhesion to chimera on protein A plate; chimera 1:2; preincubated with control anti-VCAM-1 MAb 2G7 (-); settings: scale: raw fluorescence
human α4β7 integrin [16] = molecular target: T1, human α4β7 integrin; assay: RPMI 8866 adhesion to chimera on protein A plate; chimera 1:16; preincubated with blocking anti-human MAdCAM MAb 10G3 (+); settings: scale: raw fluorescence
human α4β7 integrin [17] = molecular target: T1, human α4β7 integrin; assay: RPMI 8866 adhesion to chimera on protein A plate; chimera 1:8; preincubated with control anti-VCAM-1 MAb 2G7 (-); settings: scale: raw fluorescence
human α4β7 integrin [18] = molecular target: T1, human α4β7 integrin; assay: RPMI 8866 adhesion to chimera on protein A plate; chimera 1:4; preincubated with blocking anti-human MAdCAM MAb 10G3 (+); settings: scale: raw fluorescence
human α4β7 integrin [19] = molecular target: T1, human α4β7 integrin; assay: RPMI 8866 adhesion to chimera on protein A plate; chimera 1:32; preincubated with control anti-VCAM-1 MAb 2G7 (-); settings: scale: raw fluorescence
human α4β7 integrin [20] = molecular target: T1, human α4β7 integrin; assay: RPMI 8866 adhesion to chimera on protein A plate; chimera neat; preincubated with blocking anti-human MAdCAM MAb 10G3 (+); settings: scale: raw fluorescence
human α4β7 integrin [21] = molecular target: T1, human α4β7 integrin; assay: RPMI 8866 adhesion to chimera on protein A plate; chimera neat; preincubated with control anti-VCAM-1 MAb 2G7 (-); settings: scale: raw fluorescence
human α4β7 integrin [22] = molecular target: T1, human α4β7 integrin; assay: RPMI 8866 adhesion to chimera on protein A plate; chimera 1:4; preincubated with control anti-VCAM-1 MAb 2G7 (-); settings: scale: raw fluorescence
human α4β7 integrin [23] = molecular target: T1, human α4β7 integrin; assay: RPMI 8866 adhesion to chimera on protein A plate; chimera 1:32; preincubated with blocking anti-human MAdCAM MAb 10G3 (+); settings: scale: raw fluorescence
human α4β7 integrin [24] = molecular target: T1, human α4β7 integrin; assay: RPMI 8866 adhesion to chimera on protein A plate; chimera 1:2; preincubated with blocking anti-human MAdCAM MAb 10G3 (+); settings: scale: raw fluorescence
human α4β1 integrin = molecular target: T2, human α4β1 integrin (human, UniProt P13612 34-1032; P05556 21-798); assay: Figure 4B: Jurkat adhesion to CHO/P transfectants
T2 construct: whole, on cells; Carried by Jurkat and Ramos cells, which express α4β1 and not α4β7; also called α4β1 on Jurkat cells; α4β1 on Ramos cells

human α4β7 integrin [25] = molecular target: T1, human α4β7 integrin; assay: cell adhesion assay, CHO/P transfectants
human α4β7 integrin [26] = molecular target: T1, human α4β7 integrin; assay: RPMI 8866 adhesion to CHO/P transfectants, 4°C

T1 sequence (P13612 34-1032, chain 1 of 2): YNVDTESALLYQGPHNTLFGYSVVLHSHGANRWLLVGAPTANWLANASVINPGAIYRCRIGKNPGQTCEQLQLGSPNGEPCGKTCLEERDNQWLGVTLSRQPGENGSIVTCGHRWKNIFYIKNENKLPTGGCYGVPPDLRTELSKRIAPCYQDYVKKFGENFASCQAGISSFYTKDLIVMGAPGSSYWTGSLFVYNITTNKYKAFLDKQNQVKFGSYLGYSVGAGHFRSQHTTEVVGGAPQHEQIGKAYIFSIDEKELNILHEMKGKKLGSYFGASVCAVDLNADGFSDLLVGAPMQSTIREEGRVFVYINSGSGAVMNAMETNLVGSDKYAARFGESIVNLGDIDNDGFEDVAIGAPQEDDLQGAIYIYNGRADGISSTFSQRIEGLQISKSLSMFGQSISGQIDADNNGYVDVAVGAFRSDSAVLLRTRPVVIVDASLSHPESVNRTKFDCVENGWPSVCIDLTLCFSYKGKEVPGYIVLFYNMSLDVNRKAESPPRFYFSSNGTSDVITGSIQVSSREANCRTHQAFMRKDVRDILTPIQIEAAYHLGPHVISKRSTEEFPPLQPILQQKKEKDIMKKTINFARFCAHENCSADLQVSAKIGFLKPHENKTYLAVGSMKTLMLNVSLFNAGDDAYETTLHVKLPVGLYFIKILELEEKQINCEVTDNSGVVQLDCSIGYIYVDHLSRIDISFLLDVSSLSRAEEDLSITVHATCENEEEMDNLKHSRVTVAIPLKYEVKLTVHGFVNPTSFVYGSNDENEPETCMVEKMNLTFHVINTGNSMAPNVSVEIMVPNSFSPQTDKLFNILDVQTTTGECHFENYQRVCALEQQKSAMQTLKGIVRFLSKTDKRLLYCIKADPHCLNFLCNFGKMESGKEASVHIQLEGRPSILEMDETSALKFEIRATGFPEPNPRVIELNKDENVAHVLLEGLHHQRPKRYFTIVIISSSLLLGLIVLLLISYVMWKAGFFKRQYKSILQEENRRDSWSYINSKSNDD
T1 sequence (P26010 20-798, chain 2 of 2): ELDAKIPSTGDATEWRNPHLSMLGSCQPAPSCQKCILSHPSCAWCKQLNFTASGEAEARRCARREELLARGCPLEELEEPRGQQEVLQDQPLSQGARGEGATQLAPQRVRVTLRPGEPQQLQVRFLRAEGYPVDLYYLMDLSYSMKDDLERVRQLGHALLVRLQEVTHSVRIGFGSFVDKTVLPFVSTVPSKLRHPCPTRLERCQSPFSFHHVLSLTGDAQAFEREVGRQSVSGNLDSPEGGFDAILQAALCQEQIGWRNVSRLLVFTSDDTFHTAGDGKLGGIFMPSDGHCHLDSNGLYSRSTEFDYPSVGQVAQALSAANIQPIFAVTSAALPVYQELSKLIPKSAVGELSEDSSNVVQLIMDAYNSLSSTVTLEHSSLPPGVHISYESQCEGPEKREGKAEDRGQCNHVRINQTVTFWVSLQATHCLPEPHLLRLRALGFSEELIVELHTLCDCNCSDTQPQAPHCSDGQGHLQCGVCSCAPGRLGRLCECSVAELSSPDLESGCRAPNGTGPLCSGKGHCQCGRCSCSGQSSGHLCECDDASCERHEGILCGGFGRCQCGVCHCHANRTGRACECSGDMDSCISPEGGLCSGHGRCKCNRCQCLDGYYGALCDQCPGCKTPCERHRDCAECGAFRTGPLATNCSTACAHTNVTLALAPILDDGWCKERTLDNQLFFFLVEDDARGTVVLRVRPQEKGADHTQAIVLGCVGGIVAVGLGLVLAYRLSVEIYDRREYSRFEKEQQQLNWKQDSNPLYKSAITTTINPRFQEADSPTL
T2 sequence (P13612 34-1032, chain 1 of 2): as the sequence (P13612 34-1032, chain 1 of 2) above
T2 sequence (P05556 21-798, chain 2 of 2): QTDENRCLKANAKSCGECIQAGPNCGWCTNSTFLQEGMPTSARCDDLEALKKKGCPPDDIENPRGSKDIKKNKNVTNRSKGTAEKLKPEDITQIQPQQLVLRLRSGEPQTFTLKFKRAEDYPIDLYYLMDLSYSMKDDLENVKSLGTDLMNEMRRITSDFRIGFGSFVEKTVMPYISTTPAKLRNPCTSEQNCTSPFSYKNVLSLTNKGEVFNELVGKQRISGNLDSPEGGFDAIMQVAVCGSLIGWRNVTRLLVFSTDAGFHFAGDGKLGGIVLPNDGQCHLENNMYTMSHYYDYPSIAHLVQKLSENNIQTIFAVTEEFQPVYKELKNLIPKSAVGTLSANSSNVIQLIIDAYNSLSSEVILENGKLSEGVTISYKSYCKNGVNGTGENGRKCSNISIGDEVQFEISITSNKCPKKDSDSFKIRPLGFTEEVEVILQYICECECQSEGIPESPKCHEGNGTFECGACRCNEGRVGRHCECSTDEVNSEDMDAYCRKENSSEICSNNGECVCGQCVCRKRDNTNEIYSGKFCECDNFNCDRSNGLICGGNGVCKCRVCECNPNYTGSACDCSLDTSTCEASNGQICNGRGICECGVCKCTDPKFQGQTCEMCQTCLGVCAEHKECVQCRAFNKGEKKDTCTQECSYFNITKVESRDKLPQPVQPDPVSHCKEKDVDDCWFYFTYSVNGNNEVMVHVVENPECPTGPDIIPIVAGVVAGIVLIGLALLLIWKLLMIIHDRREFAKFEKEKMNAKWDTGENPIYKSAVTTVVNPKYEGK

Molecule: human MAdCAM-Ig chimera in the supernatant of a cloned NSO line, Sample C (Fc fusion)
fluorescence of bound RPMI 8866 cells (human α4β7 integrin [1]): 35500 | fluorescence of bound RPMI 8866 cells (human α4β7 integrin [2]): 9570 | fluorescence of bound RPMI 8866 cells (human α4β7 integrin [3]): 2440 | fluorescence of bound RPMI 8866 cells (human α4β7 integrin [4]): 4570 | fluorescence of bound RPMI 8866 cells (human α4β7 integrin [5]): 1930 | fluorescence of bound RPMI 8866 cells (human α4β7 integrin [6]): 196000 | fluorescence of bound RPMI 8866 cells (human α4β7 integrin [7]): 3490 | fluorescence of bound RPMI 8866 cells (human α4β7 integrin [8]): 21800 | fluorescence of bound RPMI 8866 cells (human α4β7 integrin [9]): 4090 | fluorescence of bound RPMI 8866 cells (human α4β7 integrin [10]): 2570 | fluorescence of bound RPMI 8866 cells (human α4β7 integrin [11]): 196000 | fluorescence of bound RPMI 8866 cells (human α4β7 integrin [12]): 3920

B2: murine MAdCAM-1 (receptor, UniProt Q61826 22-405, looked up)
chain: QSFQVNPPESEVAVAMGTSLQITCSMSCDEGVARVHWRGLDTSLGSVQTLPGSSILSVRGMLSDTGTPVCVGSCGSRSFQHSVKILVYAFPDQLVVSPEFLVPGQDQVVSCTAHNIWPADPNSLSFALLLGEQRLEGAQALEPEQEEEIQEAEGTPLFRMTQRWRLPSLGTPAPPALHCQVTMQLPKLVLTHRKEIPVLQSQTSPKPPNTTSAEPYILTSSSTAEAVSTGLNITTLPSAPPYPKLSPRTLSSEGPCRPKIHQDLEAGWELLCEASCGPGVTVRWTLAPGDLATYHKREAGAQAWLSVLPPGPMVEGWFQCRQDPGGEVTNLYVPGQVTPNSSSTVVLWIGSLVLGLLALVFLAYRLWKCYRPGPRPDTSSCTHL
notes: whole, on cells; Expressed on transiently transfected CHO/P cells; also called pCDMAD-7
binding result (human α4β1 integrin): no binding | binding result (human α4β7 integrin [26]): binds

Second part, the molecule after the results:

fluorescence of bound RPMI 8866 cells (human α4β7 integrin [1]): 196000 | fluorescence of bound RPMI 8866 cells (human α4β7 integrin [2]): 196000 | fluorescence of bound RPMI 8866 cells (human α4β7 integrin [3]): 1650 | fluorescence of bound RPMI 8866 cells (human α4β7 integrin [4]): 6530 | fluorescence of bound RPMI 8866 cells (human α4β7 integrin [5]): 2930 | fluorescence of bound RPMI 8866 cells (human α4β7 integrin [6]): 196000 | fluorescence of bound RPMI 8866 cells (human α4β7 integrin [7]): 2980 | fluorescence of bound RPMI 8866 cells (human α4β7 integrin [8]): 52100 | fluorescence of bound RPMI 8866 cells (human α4β7 integrin [9]): 3630 | fluorescence of bound RPMI 8866 cells (human α4β7 integrin [10]): 1520 | fluorescence of bound RPMI 8866 cells (human α4β7 integrin [11]): 196000 | fluorescence of bound RPMI 8866 cells (human α4β7 integrin [12]): 3270
Molecule: human MAdCAM-Ig chimera in the supernatant of a cloned NSO line, Sample B (Fc fusion)

fluorescence of bound RPMI 8866 cells (human α4β7 integrin [1]): 46900 | fluorescence of bound RPMI 8866 cells (human α4β7 integrin [2]): 16300 | fluorescence of bound RPMI 8866 cells (human α4β7 integrin [3]): 6550 | fluorescence of bound RPMI 8866 cells (human α4β7 integrin [4]): 7350 | fluorescence of bound RPMI 8866 cells (human α4β7 integrin [5]): 2660 | fluorescence of bound RPMI 8866 cells (human α4β7 integrin [6]): 196000 | fluorescence of bound RPMI 8866 cells (human α4β7 integrin [7]): 4510 | fluorescence of bound RPMI 8866 cells (human α4β7 integrin [8]): 5470 | fluorescence of bound RPMI 8866 cells (human α4β7 integrin [9]): 6790 | fluorescence of bound RPMI 8866 cells (human α4β7 integrin [10]): 5120 | fluorescence of bound RPMI 8866 cells (human α4β7 integrin [11]): 30800 | fluorescence of bound RPMI 8866 cells (human α4β7 integrin [12]): 6020
Molecule: human MAdCAM-Ig chimera in the supernatant of a cloned NSO line, Sample D (Fc fusion)

fluorescence of bound RPMI 8866 cells (human α4β7 integrin [13]): 2200 | fluorescence of bound RPMI 8866 cells (human α4β7 integrin [14]): 4250 | fluorescence of bound RPMI 8866 cells (human α4β7 integrin [15]): 196000 | fluorescence of bound RPMI 8866 cells (human α4β7 integrin [16]): 482 | fluorescence of bound RPMI 8866 cells (human α4β7 integrin [17]): 18600 | fluorescence of bound RPMI 8866 cells (human α4β7 integrin [18]): 1750 | fluorescence of bound RPMI 8866 cells (human α4β7 integrin [19]): 3560 | fluorescence of bound RPMI 8866 cells (human α4β7 integrin [20]): 3860 | fluorescence of bound RPMI 8866 cells (human α4β7 integrin [21]): 196000 | fluorescence of bound RPMI 8866 cells (human α4β7 integrin [22]): 196000 | fluorescence of bound RPMI 8866 cells (human α4β7 integrin [23]): 564 | fluorescence of bound RPMI 8866 cells (human α4β7 integrin [24]): 3090
Molecule: human MAdCAM-Ig chimera, construct HuMAdIg21 (entire extracellular domain of human MAdCAM-1 fused to Fc-mutated human IgG1 constant region) (from UniProt P01857 1-330) (Fc fusion)

binding result (human α4β1 integrin): binds | binding result (human α4β7 integrin [25]): no binding
B1: seven domain human VCAM-1 (receptor, UniProt P19320 25-739, looked up)
chain: FKIETTPESRYLAQIGDSVSLTCSTTGCESPFFSWRTQIDSPLNGKVTNEGTTSTLTMNPVSFGNEHSYLCTATCESRKLEKGIQVEIYSFPKDPEIHLSGPLEAGKPITVKCSVADVYPFDRLEIDLLKGDHLMKSQEFLEDADRKSLETKSLEVTFTPVIEDIGKVLVCRAKLHIDEMDSVPTVRQAVKELQVYISPKNTVISVNPSTKLQEGGSVTMTCSSEGLPAPEIFWSKKLDNGNLQHLSGNATLTLIAMRMEDSGIYVCEGVNLIGKNRKEVELIVQEKPFTVEISPGPRIAAQIGDSVMLTCSVMGCESPSFSWRTQIDSPLSGKVRSEGTNSTLTLSPVSFENEHSYLCTVTCGHKKLEKGIQVELYSFPRDPEIEMSGGLVNGSSVTVSCKVPSVYPLDRLEIELLKGETILENIEFLEDTDMKSLENKSLEMTFIPTIEDTGKALVCQAKLHIDDMEFEPKQRQSTQTLYVNVAPRDTTVLVSPSSILEEGSSVNMTCLSQGFPAPKILWSRQLPNGELQPLSENATLTLISTKMEDSGVYLCEGINQAGRSRKEVELIIQVTPKDIKLTAFPSESVKEGDTVIISCTCGNVPETWIILKKKAETGDTVLKSIDGAYTIRKAQLKDAGVYECESKNKVGSQLRSLTLDVQGRENNKDYFSPELLVLYFASSLIIPAIGMIIYFARKANMKGSYSLVEAQKSKV
notes: whole, on cells; Expressed on transiently transfected CHO/P cells; also called pCD3VCAM
